The DeepSol protein solubility set

Test: soluble on expression in E. coli; label from the status in PepcDB or PDB records

Row | Sequence | soluble on expression in E. coli
1 | MGSDKIHHHHHHAGLPDNLTPVGAERAASPDGRIPAWQGGLSTAQQRLGDNGTPLDPFADEQPLYRITAANYRQYRGQLTDGQVALLKRFPASLSLPVYPTHRSVAVPDAVAASAARNAEQAQLDDQGNGVRGFTGVIAFAQPTNGLEVIWNHLTRHRNVSYSLSSDSVTPLKNGRFVLMSARQEVARPEGLANLGAGNVLYYFTYRMTAPSRLAGDAMVVHETLDQVAEPRLSWVYSASQRRVRRAPNIAYDTTGPGTAGLRTADSRDMFNGAPDRYDWKLLGKQALHVPYNCYRLASPELRYVDLIKPGHIDPAPTRYELHRVWVVEATLKPGAQHIYAKRRFYLDEDTWAILETDSYDARGELWRTSQAHGFFHPSGQVAVNAMEITYDLKSGRYHASGLINEQRRPFAFNVRTSLSYFSPGALRSFGVR | not soluble
2 | MSLKSLEGSWCLVLGASSGIGRAIALGLAREGVHVAGVHFDTAARAEEVEALVEEIRSLGVEARFFNTNAASKATRAELVPQLAELTGANGGIRILVHSLAFGTLVPFTPREGWDRPISVRQLEMTLDVMAHSLVYWTQDLLAAGLLRSGSKVYAMTSAGTSQHLPSYGAVSAAKSALESHVRQLAAELATSGIAVNALRAGTTVTPALQRIPEHAGYIERAAENNPHGRLTRPDDVADAVALLSRTESSWLTGNTIGIDGGELHEGHHHHHH | soluble
3 | MKKICMKNGMKIIYEYRESDITSFCVAFNAGAEREGKKERGLAHVVEHCIFKGTKKRSEAQINSEFDEIFGFNNAMTNFPYVIYYGTTLSKDFEKGFELYSDIIVNPTFSEEGFEEEKSIICEELTEWKDDKQQFCEDELLKNSFSNIRLKECIIGNEKNIKDFSIDELRKFYKKYYTSDNCVIGIVTSLKEEEVTDIINNYMTLSKREKPSLFDYEYEKNTSGIFTSKMDVKGAVIQYLFPIYKLKDDEIKALRAFNVIFGEGTSSMLYDKIRTKYGLAYDIYSKINNDGGIKLFYIGLGTASENFDKSIEFVNDTICEAKNLKGQFSSDKLLKIEKTMSLKRSLKLERSIQLAKELATYELMYGKAENVYDEVKDINLLNEDYIIEVVRSVLVTPSIQVVKPNK | not soluble
4 | MGHHHHHHSHATWHSALRGDAGLDSCRHVDSKCSGLHSSYRNLGTRQCPFSFLAEVMGKEPHFHSCLQVSHEFALNFNPSNPYCAGIQGIVDAYRQALPQVRLYGPTNFAPIINHVARFAQYFMLLLLTDGAVTDVEATREAVVRASNLPMSVIIVGVGGADFEAMEQLDADGGPLHTRSGQAAARDIVQFVPYRRFQNAPREALAQTVLAEVPTQLVSYFRAQGWAPLKPLPPSAKDPAQAPQA | not soluble
5 | RLKNPKIKQGGEWMDVDWKTALEYVRSAIECIAKDGNQNQVGVWANPMNTVEELYLAKKFADGLGVKNFATRLRQQDKRLSDGLKGAQWLGQSIESLADNDAVLVVGANLRKEQPLLTARLRRAAKDRMALSVLAGSKEELFMPLLSQEAAHPDEWAGRLKNLSADAEHAVTASLKNAEKAAVILGAEVQNHPDYAAIYAAAQELADATGAVLGILPQAANSVGADVLGVNSGESVAEMANTPKQAVLLLNVEPEIDTVDGAKAVAALKQAKSVMAFTPFVSETLLDVCDVLLPIAPFTETSGSFINMEGRLQSFHGVVQGFGDSRPMWKVLRVLGNLFDLKGFEYHDTAAILKDALD | not soluble
6 | MGHHHHHHSHMHVDREFAVVTDMKNSSSVSNTLTNGCVINGHLDFPSTTPLSGMESRNGQCLTGTNGISSGLAPGQPFPSSQGSLCISGTEEPEKTLRANPELCGSLHLNGSPSSCIASRPSWVEDIGDNLYYGHYHGFGDTAESIPELNSVVEHSKSVKVQERYDSAVLGTMHLHHGS | not soluble
7 | MTWKNFGFEIFGEKYGQEELEKRIKDEHTPPPDSPVFGGLKLKLKKEKFKTLFTLGTTLKGFRRATHTVGTGGIGEITIVNDPKFPEHEFFTAGRTFPARLRHANLKYPDDAGADARSFSIKFADSDSDGPLDIVMNTGEANIFWNSPSLEDFVPVEEGDAAEEYVYKNPYYYYNLVEALRRAPDTFAHLYYYSQVTMPFKAKDGKVRYCRYRALPGDVDIKEEDESGRLTEEEQRKIWIFSRHENEKRPDDYLRKEYVERLQKGPVNYRLQIQIHEASPDDTATIFHAGILWDKETHPWFDLAKVSIKTPLSPDVLEKTAFNIANQPASLGLLEAKSPEDYNSIGELRVAVYTWVQHLRKLKIGSLVPAGQNAIYNVEVETGDREHAGTDATITIRITGAKGRTDYLKLDKWFHNDFEAGSKEQYTVQGFDVGDIQLIELHSDGGGYWSGDPDWFVNRVIIISSTQDRVYSFPCFRWVIKDMVLFPGEATLPFNEVPAIVSEQRQKELEQRKLTYQWDYVSDDMPGNIKAKTHDDLPRDVQFTDEKSRSYQESRKAALVNLGIGSLFTMFENWDSYDDYHILYRNWILGGTPNMADRWHEDRWFGYQFLNGANPVILTRCDALPSNFPVTNEHVNASLDRGKNLDEEIKDGHIYIVDFKVLVGAKSYGGPVLEDIGYKVPDHLKHDEADIRYCAAPLALFYVNKLGHLMPIAIQINQEPGPENPIWTPHEENEHDWMMAKFWLGVAESNFHQLNTHLLRTHLTTESFALSTWRNLASAHPIFKLLQPHIYGVLAIDTIGRKELIGSGGIVDQSLSLGGGGHVTFMEKCFKEVNLQDYHLPNALKKRGVDDPSKLPGFYYRDDGLALWEAIETFIGEIIAIFYKNDDDVKRDNEIQSWIYDVHKNGWRVNPGHQDHGVPASFESREQLKEVLTSLVFTFSCQHAAVNFSQKDHYGFTPNAPAILRHPPPKKKGEATLQSILSTLPSKSQAAKAIATVYILTKFSEDERYLGNYSATAWEDKDALDAINRFQDKLEDISKKIKQRNENLEVPYIYLLPERIPNGTAI | soluble
8 | MSLEDIWHKADELCEKNIKIVIRNLGLNLTISFQCYSHLLQNIPSMLGSIPFQRILSERKNKFDNAIVVSAGPSLTKQLPLLKAYQDKAVVFCADGALSMLEKEGVVPDYVLNIDFEDLPLRFFKNKQNKLSLNILSCATHPSLVHFLDNKSVILRDDPLYQSFNLNDFGYIDTGTHVSHFSYTLALALGFKNIIMIGQDLAFDEEGNSHSKGFDFGEKFEEEHKKYKLKTQAYGGKGEVLTHITWNDYRVKLEYLFACNDQKAKFYNATEGGARINFTEELSFKECCEKLLTKEKPKFELPKSLTKNRSDKLLAKFKEKIQKDQENAKRFLDDEGHHHHHH | soluble
9 | MASTTQNTPTKDLAEISERFEKLRARSSNNMATFNTTSSYNRTYEKKVIEEGSPNVRVTTQTHTAIPGMPDLGNIHSSMLSNFPNLAISSPSVVGSQNGNLTSIRVTNTSFHAILDVSKYDADSLKVTVVDNNIIVEGSHGEKEDTYGTIESTFKRRFPLPKAVAPESVQSQLTADGHLTIDAKAPEPKQEGARPIQIKVINTSAEQQKQ | not soluble
10 | MRSVRRREALREWIMAKLYFNYSTMNAGKSTMLLQASYNYQERGMRTLIFTAAFDDRAGVGRVASRIGLSSEARTFDENTDLFAEVAALHAQAPVACVFVDEANFLSEHHVWQLANIADRLNIPVMTYGLRTDFQGKLFPASKELLAIADELREIRTICHCGRKATMVARFDSEGKVVTEGAQIEVGGNGKYVSFCRRHWVETFNCSLEHHHHHH | not soluble
11 | SIGLTVEDLLSLRQVVSGNPEALAPLLENISARYPQLREHIMANPEVFVSMLLEA | soluble
12 | MGSDKIHHHHHHMAKGNKIPLTFHTYQDAATGTEVVRLTPPDVICHRNYFYQKCFFNDGSKLLFGAAFDGPWNYYLLDLKEQNATQLTEGKGDNTFGGFLSPNDDALYYVKNTRNLMRVDLTTLEEKTIYQVPDDWVGYGTWVANSDCTKMVGIEIKKEDWKPLTDWKKFQEFYFTNPCCRLIRVDLVTGEAETILQENQWLGHPIYRPGDDNTVAFCHEGPHDLVDARMWFINEDGTNMRKVKEHAEGESCTHEFWVPDGSAMIYVSYLKDDTNRYIRSIDPVTLEDRQLRVMPPCSHLMSNYDGTLLVGDGSDAPVDVQDDGGYKIENDPFLYVFNLKTGKEHRIAQHNTSWEVLEGDRQVTHPHPSFTPDNKQVLFTSDVDGKPALYLAKVPDSVWN | not soluble
13 | MHHHHHHAMGIPGHAFSKIKVKQPVVELDGDEMTRIIWDKIKKKLILPYLDVDLKYYDLSVESRDATSDKITQDAAEAIKKYGVGIKCATITPDEARVKEFNLHKMWKSPNGTIRNILGGTVFREPIVIPRIPRLVPRWEKPIIIGRHAHGDQYKATDTLIPGPGSLELVYKPSDPTTAQPQTLKVYDYKGSGVAMAMYNTDESIEGFAHSSFKLAIDKKLNLFLSTKNTILKKYDGRFKDIFQEVYEAQYKSKFEQLGIHYEHRLIDDMVAQMIKSKGGFIMALKNYDGDVQSDIVAQGFGSLGLMTSILVTPDGKTFESEAAHGTVTRHYRKYQKGEETSTNSIASIFAWSRGLLKRGELDNTPALCKFANILESATLNTVQQDGIMTKDLALACGNNERSAYVTTEEFLDAVEKRLQKEIKSIE | soluble
14 | MRVAIVGTGIAGNAAAWALSQRYPVTVYERELRAGGHSHTVTVDYDGTTIPVDIGFIVYNQLNYPDLTAMFAHLGVETVESCMSFSVSADAGRFEWKGGGSNWLETADGLFAQRRNLLSPSYLQMLRHILVFNEKSVEDFKTGALAGLTLGDYFESRKFAPRLLTDYLAPMGAAIWSAPASQILDFPAENFVAFFNNHRLLHYERPIWRTVKGGSARYVEKLTSAFKDDMRLGAAVTSIERSPKGVIVRDSLGGLGVFDHVVIGAHSDQALAMLSDASDIERDILGSIGYAPNMVYLHRDPRLMPKRKRAWASWNFLRWQREGSPVNDVAVTYWMNRLQGIDADKPLFVSLNPPFEPAPELTFGRYACDHPQYTAKAFAAQRRVGELQGHRNTWFCGAWTGYGFHEDGLRSGLAVAEHLGAPVPWRGPPSEFREAAELEHHHHHH | soluble
15 | MSLAKYKKLFEPYTLNNDVVLKNRLVVAPLTIYDSGPDGELTPAAHNFWRNRFRGFGTWIVPFTNVHPSGIGFESPNAFHEENLPTLKAYATISHEQGAKAIIQLAHAGIHADPAMTKGYDLMGPSNLPYMGVRAMTDSEVREMVNAFAYATELAISAGLDGVEIHGANGWLIQQFVSETYNQRTDHWGGSVEKRFNFPLAIIDAIEAVRHKYHRPDFIVGYRFSPEEPGEVGLTMTETLALVDRLLDKPLQYIHISLWNFYKKIRRGGDVKKTRMEAVHDRINGRLPFIGVGDLFAEEQGLKAFNTGWADLLAVGGSVELNPNLIELIKTGQEDQIQSEFDWNEMDSYRFTPAMLYGTLAGNAMFPKVKEGHHHHHH | soluble
16 | MDVSFEFEHYQVRLIKSSDAVTIANYFMRNRHHLAPWEPKRSHAFFTPEGWKQRLLQLVELHKHNLAFYFVVVDKNEHKIIGTVSYSNITRFPFHAGHVGYSLDSEYQGKGIMRRAVNVTIDWMFKAQNLHRIMAAYIPRNEKSAKVLAALGFVKEGEAKKYLYINGAWEDHILTSKINDDWKP | soluble
17 | SLKQQLIKNGLVLDMKGNHKPQAKDILIEGKWIRDIRPNIEPEVDTEIIDAEGKIVMPGFVDTHRHVWESLLRHIGTDWTLLTYLDNLYYGNLGSMLTPEDSYIANLWGALEAIDAGVTTVLDWSMLETPEHADASIKGLQAAGIRAVFAHGTPGYETYWSRDSEVRHPKDAKRVKKEYFQSDDQLLTMALAIRGPEFSSWEVTLDDIQLARELDAIASMHIGFGTWGPHDRSITRMREAGLLDSDLNLVHVNRIQPHEYEYIAESGASLSVTPEVEMMMGHGYPATGYLHKHRGLVTLGVDVVVATAGDMFAQMKFALQAERAWQNEQRLDRGEMPEQLKMTTNDVLTFATLNGAKALKLDDKIGTLDVGKEADLLLINPSSFNLFPLNHEPVGAVVQSARPENVDSVFIAGRPVKRHGKLLFDDLDGLRNKVLAASEAVFHRQAAKN | not soluble
18 | MGSDKIHHHHHHMTDTTIPNPLAPVKGANTTFWMYNSEGDPFASPLSDNNWLRLANVKDLQPGELTADAEDNNYLDDENADWKSTTQGQKSAGDTSVTLAWKPGEDVQKKLIQLFTTGQKRGFRIKYPNGTVDVFRGWVSSLGKTVQSKDEIARTVKITSVGRPYMAEEDAPEVVSVTGLTVEPTNATVKVGATTAVTFTVKPDNVTDKSLRIATSDPTTATVTQAENIATVKGVKAGTVKIIGMTTDGNFTAIADITVQA | not soluble
